# Assay results published in article PMC4967302.
# Assays:
# [1] = target: CCR5 in crude membranes from CCR5-expressing HEK 293T cells (UniProt P51681); test: radioligand binding; equilibrium saturation binding of 35S-labeled gp120 to crude membranes from CCR5-expressing HEK 293T cells, room temperature, in the presence of 200 nM soluble CD4; non-specific binding measured with 10 µM maraviroc; one-site binding model
# [2] = target: CD4 exposed at the surface of HEK 293T cells (UniProt P01730); test: flow cytometry on cells
# UniProt P51681, sequence (P51681 whole entry): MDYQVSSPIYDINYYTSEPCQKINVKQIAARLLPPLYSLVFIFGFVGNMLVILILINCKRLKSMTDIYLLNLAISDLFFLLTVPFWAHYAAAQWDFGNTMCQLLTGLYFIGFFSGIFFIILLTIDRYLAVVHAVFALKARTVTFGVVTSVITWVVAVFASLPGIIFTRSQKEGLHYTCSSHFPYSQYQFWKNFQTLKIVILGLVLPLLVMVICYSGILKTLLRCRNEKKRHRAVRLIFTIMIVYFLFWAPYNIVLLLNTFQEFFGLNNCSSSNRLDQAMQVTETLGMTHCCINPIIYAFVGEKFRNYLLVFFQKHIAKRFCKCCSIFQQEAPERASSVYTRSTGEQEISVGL
substance,measurement,setting,value
purified soluble wt B gp120 (domain or fragment),Kd,[1],8.4 nM
same,Ki,[2],3.9 nM
